Reference: patent publication US20210355235A1, “Compositions and Methods For Treating Cancer with Anti-Renalase antibodies and Anti-PD1 antibodies” (YALE UNIVERSITY, priority 2017, published 2021)
Where a chain is given by its changes, count along the chain named. Read-outs that look alike come from different tables or passages of the source. Each block holds one molecule with its values, some of them ahead of it.

Legend:
[1] = test system: renalase-1 and renalase-2; experiment: renalase isoform specificity of the antibodies (ELISA / hybridoma screening); type: binding, human; conditions: renalase-1 vs renalase-2
Method: Peptides were used as immunogens. The peptides generated ranged from 9 to 21 amino acids and corresponded to regions of the renalase-1 and renalase-2 proteins. […] Each peptide was conjugated to the adjuvant KLH via the cysteine and used to immunize 6 rabbits. Antiserum collected from each animal was screened for anti-renalase antibody titer by ELISA assay using both the relevant peptide (BSA-conjugate) or full length renalase-1 or 2. The antisera were also tested for their ability to detect endogenous renalase in tissue lysates by western blot. Using these screening criteria the animals producing antibodies with the preferred characteristics were selected. In some examples and for some peptides, several animals produced antibodies with the required specificity. […] Polyclonal antibodies raised against all of the peptides were generated by purification of total IgG from terminal bleeds by protein G chromatography followed by further purification on peptide affinity chromatography. Further and using standard procedures, lymphocytes from the spleens of selected animals were fused to myeloma cells for hybridoma generation. The hybridoma supernatants were screened for binding to both the peptides against which they were raised and secondarily screened against whole renalase protein. Selected hybridomas were sub-cloned and expanded for antibody purification. The monoclonal antibodies were purified from conditioned hybridoma culture supernatant by protein A affinity chromatography.

[2] = test system: melanoma cell lines; experiment: melanoma cells in culture, viability / growth; type: cell-based, human
Method: (§1) Total cell number and percentage of live cells were assessed by trypan blue exclusion, and cells were counted using a BioRad TC10 automated cell counter. For additional studies, cell viability was determined using WST-1 reagent (Roche Diagnostics, Indianapolis, Ind., USA) according to the manufacturers' instruction. Absorbances were read using a microplate reader (Power Waves XS, BioTek Instruments, Winooski, Vt., USA).

[3] = test system: PDACC (pancreatic ductal adenocarcinoma cells); experiment: PDACC viability with anti-RNLS antibodies, WST-1; type: cell-based, human; conditions: 72 hrs
Method: FIG. 25, comprising FIGS. 25A through 25E, is a series of charts and images showing that inhibition of RNLS signaling is cytotoxic to cancer cells in vitro and in vivo. FIG. 25A is a chart showing relative cell viability following transient transfection of Panc1 cells using a RNLS-specific siRNA, or a non-specific control siRNA, and cell viability assayed 96 h later using the WST-1 reagent; n=6, ** indicates p<0.001. FIG. 25B is a chart showing relative cell viability when cells were treated with indicated antibodies for 72 hrs and cell viability determined using WST-1; m28-RNLS and m37-RNLS: monoclonal antibodies raised against RNLS peptide RP220, ab31291: Abcam polyclonal antibody raised against a partial sequence of RP-220; n=6, * indicates p<0.005. […] FIG. 25D is a chart showing tumor volume increase after athymic nude mice received subcutaneous injection of Panc1 cells transduced with RNLS shRNA (sh-RNLS) or control (sh-Control); tumor volume measured every […] for up to 30 days, n=6 each; * indicates p<0.05. FIG. 25E is chart showing tumor volume increase after nude mice were xenografted with BxPC3; tumor volume measured prior to treatment every 3-4 days with 2 mg/kg of either rabbit IgG as a negative control or with m28-RNLS, n=10, * indicates p<0.05.
Cell viability was assessed by trypan blue exclusion, and cells were counted using a BioRad TC10 automated counter.

[4] = test system: HK-2 cells; experiment: STAT phosphorylation in HK-2 cells treated with RNLS; type: cell-based, human
Source text: STAT3 binds to the promoter region of the RNLS gene and increases its expression (Sonawane et al., 2014 Biochemistry. 53(44):6878-6892).

[5] = test system: A375.S2, MeWo, SkMel5 and SkMel28 cells; experiment: survival of serum-starved melanoma cells, WST-1; type: cell-based, human; conditions: 30 ug/ml, 72 hrs
Method: as §1
RNLS-mediated signaling is anti-apoptotic, and protects normal cells exposed to toxic stress from apoptotic death (Wang et al., 2014 J Am Soc Nephrol.; Lee et al., 2013 J Am Soc Nephrol. 24:445-55). To explore if RNLS signaling favored the survival of cancer cells, either recombinant RNLS (rRNLS) or bovine serum albumin (BSA) was added to serum-starved melanoma cells (A375.S2, MeWo, SkMel5, and SkMel28) in culture, and cell viability was determined. […] The total cell number and percentage of live cells of those treated with RNLS were counted to determine if the apparent increase in proliferative rate was due an increase in cell proliferation or to a decrease in the rate of apoptosis.

[6] = test system: MiaPaCa2 cells; experiment: FACS cell cycle analysis with rRNLS; type: cell-based, human; conditions: 30 μg/ml
Method: For cell cycle analysis, cultured cells were dissociated using 10 mM EDTA, fixed with ice-cold 70% ethanol, digested with RNAse A, and stained with propidium iodide. Propidium staining was detected using a BD FACSCalibur flow cytometer (BD Biosciences, San Jose, Calif., USA), and analyzed using CellQuest software.

[7] = test system: Panc1 cells; experiment: western blot of p38 and STAT3 phosphorylation; type: cell-based, human
Source text: FIG. 27, comprising FIGS. 27A through 27E, is a series of images and charts showing the interaction between RNLS and STAT3, and the mechanistic model of inhibition by m28-RNLS. FIG. 27A is an image showing activation of STAT3 by RNLS in Panc1 cells; Panc1 cells in culture treated with either BSA or RNLS, and STAT3 phosphorylation assessed by western blot; p-Ser^727-STAT3: phosphorylation at serine 727, p-Y^705-STAT3: phosphorylation at tyrosine 705; representative study. FIG. 27B is a chart depicting the quantification of STAT3 phosphorylation with RNLS; signals normalized to total STAT3; n=3, *=P<0.05. […] FIG. 27D is a chart showing the quantification of STAT3 phosphorylation with m28-RNLS; signals normalized to GAPDH loading control; n=3, *=P<0.05. FIG. 27E depicts the proposed mechanistic model for antitumor activity of m28-RNLS.

B2: 1F-42-7: anti-renalase monoclonal specific for renalase-1; heavy chain SEQ ID NO:33, light chain SEQ ID NO:34 (antibody)
heavy: METGLRWLLLVAVLKGVQCQSVKESEGGLFKPTDTLTLTCTVSGFSLTTYGVTWVRQAPGNGLEWIGLIGDRGTTYYASWVNGRSTITRNTNLNTVTLKMTRLTAADTATYFCARGSGYGARIWGPGTLVTVASWQPKAPSVFPLAPCCGDTPSSTVTLGCLVKGYLPEPVTVTWNSGTLTNGVRTFPSVRQSSGLYSLSSVVSVTSSSQPVTCNVAHPATNTKVDKTVAPSTCSKPTCPPPELLGGPSVFIFPPKPKDTLMISRTPEVTCVVVDVSQDDPEVQFTWYINNEQVRTARPPLREQQFNSTIRVVSTLPIAHQDWLRGKEFKCKVHNKALPAPIEKTISKARGQPLEPKVYTMGPPREELSSRSVSLTCMINGFYPSDISVEWEKNGKAEDNYKTTPAVLDSDGSYFLYSKLSVPTSEWQRGDVFTCSVMHEALHNHYTQKSISRSPGK
light: MDTRAPTQLLGLLLLWLPGATFAQVLTQTPSPMSAALGGTVTINCQSSQTVYNNNYLSWYQQKPGQPPKLLIYETSKLSSGVPPRFSGSGSGTQFTLTISSVQCDDAATYYCQGGYSGVDFMAFGGGTEVVVKGDPVAPTVLIFPPSADLVATGTVTIVCVANKYFPDVTVTWEVDGTTQTTGIENSKTPQNSADCTYNLSSTLTLTSTQYNSHKEYTCKVTQGTTSVVQSFNRGDC
modifications: 1F-42-7 full length heavy chain amino acid; 1F-42-7 full length light chain amino acid
renalase-type specificity [1]: specific for renalase-1

B3: m37-RNLS: rabbit anti-renalase monoclonal raised against RP-220; heavy chain SEQ ID NO:17, light chain SEQ ID NO:18 (antibody)
heavy: METGLRWLLLVAVLKGVQCQSVEESGGRLVTPGGSLTLTCTVSGFSLSDYAIIWVRQAPGKGLEYIAIIGSSGDTFYATWAKGRFTISKTSTTVDLKMTSLTAADTATYFCAPRYAGTTDYHDAFDPWGPGTLVTVSSGQPKAPSVFPLAPCCGDTPSSTVTLGCLVKGYLPEPVTVTWNSGTLTNGVRTFPSVRQSSGLYSLSSVVSVTSSSQPVTCNVAHPATNTKVDKTVAPSTCSKPTCPPPELLGGPSVFIFPPKPKDTLMISRTPEVTCVVVDVSQDDPEVQFTWYINNEQVRTARPPLREQQFNSTIRVVSTLPIAHQDWLRGKEFKCKVHNKALPAPIEKTISKARGQPLEPKVYTMGPPREELSSRSVSLTCMINGFYPSDISVEWEKNGKAEDNYKTTPAVLDSDGSYFLYSKLSVPTSEWQRGDVFTCSVMHEALHNHYTQKSISRSPGK
light: MDTRAPTQLLGLLLLWLPGARCAEVVMTQTPASMEAPMGGTVTIKCQASQNIYNYLSWYQQKPGQPPKLLVYKASTLTSGVPSRFKGSGSGTQFTLTISDLECADAATYYCQINYSIYNHYNIIFGGGTEVVVKGDPVAPTVLIFPPSADLVATGTVTIVCVANKYFPDVTVTWEVDGTTQTTGIENSKTPQNSADCTYNLSSTLTLTSTQYNSHKEYTCKVTQGTTSVVQSFNRGDC
modifications: 1D-37-10 full length heavy chain amino acid; 1D-37-10 full length light chain amino acid
renalase-type specificity [1]: recognize renalase-1 and renalase-2 | melanoma cell viability / growth in culture [2]: decreased the viability of all (total of 5) melanoma cell lines tested | melanoma cell viability / growth in culture ([2]; listed as 1D-37-10): inhibit melanoma cells in culture | melanoma cell viability / growth in culture ([2]; listed as D-37-10): inhibit melanoma cell growth | PDACC growth / viability [3]: inhibitory effects

B4: rRNLS: recombinant human RNLS (renalase) (protein, UniProt Q5VYX0 18-342, looked up)
Renalase: ALLRRQTSGPLYLAVWDKAEDSGGRMTTACSPHNPQCTADLGAQYITCTPHYAKKHQRFYDELLAYGVLRPLSSPIEGMVMKEGDCNFVAPQGISSIIKHYLKESGAEVYFRHRVTQINLRDDKWEVSKQTGSPEQFDLIVLTMPVPEILQLQGDITTLISECQRQQLEAVSYSSRYALGLFYEAGTKIDVPWAGQYITSNPCIRFVSIDNKKRNIESSEIGPSLVIHTTVPFGVTYLEHSIEDVQELVFQQLENILPGLPQPIATKCQKWRHSQVTNAAANCPGQMTLHHKPFLACGGDGFTQSNFDGCITSALCVLEALKNYI
STAT1 [4]: unaffected | increase of STAT3 phosphorylation at serine 727 (p-Ser727-STAT3) [4]: 2 fold | increase of STAT3 phosphorylation at tyrosine 705 (p-Y705-STAT3) [4]: 4 fold | survival of serum-starved melanoma cells compared to BSA [5]: markedly increased the survival | cell cycle progression compared to BSA [6]: no effect on cell cycle progression | phosphorylated STAT3 (p-Ser727-STAT3 and p-Y705-STAT3) after RNLS [7]: rapid increase

The next lines start with the values.

renalase-type specificity [1]: specific for renalase-1
B1: 1F-26-1: anti-renalase monoclonal specific for renalase-1; heavy chain SEQ ID NO:25, light chain SEQ ID NO:26 (antibody)
heavy: B2 heavy with T48S, T49S, Y76F, V81A, N82K, G83S, A133S
light: B2 light with M33V, L37V, T50S, N53K, S58A, S79A
modifications: 1F-26-1 full length heavy chain amino acid; 1F-26-1 full length light chain amino acid

renalase-type specificity [1]: specific for renalase-2
B5: 3A-5-2: anti-renalase monoclonal specific for renalase-2; heavy chain SEQ ID NO:41, light chain SEQ ID NO:42 (antibody)
heavy: METGLRWLLLVAVLKGVQCQSLEESGGRLVTPGTPLTLTCTVSGFSLNNYHIYWVRQAPGKGLEYIGIIFNGGTYYARWTKGRFTISKTSTTVDLKMTSLTTEDTATYFCARGDGIWGPGTLVTVSLGQPKAPSVFPLAPCCGDTPSSTVTLGCLVKGYLPEPVTVTWNSGTLTNGVRTFPSVRQSSGLYSLSSVVSVTSSSQPVTCNVAHPATNTKVDKTVAPSTCSKPTCPPPELLGGPSVFIFPPKPKDTLMISRTPEVTCVVVDVSQDDPEVQFTWYINNEQVRTARPPLREQQFNSTIRVVSTLPIAHQDWLRGKEFKCKVHNKALPAPIEKTISKARGQPLEPKVYTMGPPREELSSRSVSLTCMINGFYPSDISVEWEKNGKAEDNYKTTPAVLDSDGSYFLYSKLSVPTSEWQRGDVFTCSVMHEALHNHYTQKSISRSPGK
light: MDTRAPTQLLGLLLLWLPGATFAQVLTQTPASVSAAVGGTVTINCQASQSVFNNNYLAWYQQKPGQPPKRLIYSASTLASGVSSRFKGSGSGTEFTLTMSGVECDDAATYYCAGSFDCNSGDCVAFGGGTEVVVKGDPVAPTVLIFPPAADQVATGTVTIVCVANKYFPDVTVTWEVDGTTQTTGIENSKTPQNSADCTYNLSSTLTLTSTQYNSHKEYTCKVTQGTTSVVQSFNRGDC
modifications: 3A-5-2 full length heavy chain amino acid; 3A-5-2 full length light chain amino acid
